According to article PMC2223497 (2026):

Key:
Assay in all cases: Scatchard binding assay
[1] = target: T1, G-CSF receptor (KK cells) (Homo sapiens, UniProt Q99062)
T1 chain: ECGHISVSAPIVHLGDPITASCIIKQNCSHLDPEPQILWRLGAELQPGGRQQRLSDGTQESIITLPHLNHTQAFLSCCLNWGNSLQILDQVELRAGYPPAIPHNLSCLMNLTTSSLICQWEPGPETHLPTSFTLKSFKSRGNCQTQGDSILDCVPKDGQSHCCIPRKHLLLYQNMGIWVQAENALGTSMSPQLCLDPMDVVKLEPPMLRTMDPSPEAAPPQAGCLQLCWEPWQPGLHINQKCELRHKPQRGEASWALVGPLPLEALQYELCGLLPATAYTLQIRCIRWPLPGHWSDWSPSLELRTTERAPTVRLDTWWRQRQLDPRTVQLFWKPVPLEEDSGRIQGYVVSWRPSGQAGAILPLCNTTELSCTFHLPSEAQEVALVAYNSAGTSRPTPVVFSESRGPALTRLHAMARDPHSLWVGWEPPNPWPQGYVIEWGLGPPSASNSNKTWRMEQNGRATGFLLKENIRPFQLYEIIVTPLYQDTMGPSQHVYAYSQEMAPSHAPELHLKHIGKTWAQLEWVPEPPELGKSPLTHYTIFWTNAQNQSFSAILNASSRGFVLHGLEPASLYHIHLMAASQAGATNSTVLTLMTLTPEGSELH

[2] = target: T2, G-CSF receptor (KU-1 cells) (Homo sapiens, UniProt Q99062)
T2 chain: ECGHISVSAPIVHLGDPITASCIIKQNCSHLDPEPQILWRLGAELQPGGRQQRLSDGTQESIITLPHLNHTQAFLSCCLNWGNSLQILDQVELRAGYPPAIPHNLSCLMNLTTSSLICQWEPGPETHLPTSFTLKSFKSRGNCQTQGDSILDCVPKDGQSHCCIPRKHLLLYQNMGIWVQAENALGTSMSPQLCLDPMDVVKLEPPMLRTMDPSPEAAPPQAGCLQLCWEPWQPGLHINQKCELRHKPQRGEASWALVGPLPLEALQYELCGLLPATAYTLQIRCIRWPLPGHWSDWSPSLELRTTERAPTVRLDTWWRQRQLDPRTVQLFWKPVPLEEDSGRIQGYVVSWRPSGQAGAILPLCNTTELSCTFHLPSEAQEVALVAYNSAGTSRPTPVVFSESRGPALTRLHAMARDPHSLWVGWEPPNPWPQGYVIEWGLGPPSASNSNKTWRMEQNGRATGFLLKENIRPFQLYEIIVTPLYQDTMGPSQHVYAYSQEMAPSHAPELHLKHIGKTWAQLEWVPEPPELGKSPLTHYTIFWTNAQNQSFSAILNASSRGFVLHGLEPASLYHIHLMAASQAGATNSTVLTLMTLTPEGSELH

[3] = target: T3, G-CSF receptor (NBT-2 cells) (Homo sapiens, UniProt Q99062)
T3 chain: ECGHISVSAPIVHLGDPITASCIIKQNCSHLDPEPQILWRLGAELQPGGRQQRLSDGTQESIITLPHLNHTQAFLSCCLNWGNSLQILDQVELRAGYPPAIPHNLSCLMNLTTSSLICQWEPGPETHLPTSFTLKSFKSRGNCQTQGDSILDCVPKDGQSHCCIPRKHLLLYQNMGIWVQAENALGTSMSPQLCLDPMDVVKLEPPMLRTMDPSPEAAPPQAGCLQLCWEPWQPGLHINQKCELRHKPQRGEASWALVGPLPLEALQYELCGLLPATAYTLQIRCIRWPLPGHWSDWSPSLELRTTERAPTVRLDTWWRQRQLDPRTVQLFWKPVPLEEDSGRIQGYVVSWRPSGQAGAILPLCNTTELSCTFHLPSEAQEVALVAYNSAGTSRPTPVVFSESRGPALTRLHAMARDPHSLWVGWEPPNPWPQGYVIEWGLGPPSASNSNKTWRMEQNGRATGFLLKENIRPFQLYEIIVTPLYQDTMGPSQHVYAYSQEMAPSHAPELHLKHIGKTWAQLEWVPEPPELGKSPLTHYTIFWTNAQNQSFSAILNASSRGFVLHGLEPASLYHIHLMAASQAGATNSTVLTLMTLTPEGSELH

B1: G-CSF (protein)
chain: TPLGPASSLPQSFLLKCLEQVRKIQGDGAALQEKLVSECATYKLCHPEELVLLGHSLGIPWAPLSSCPSQALQLAGCLSQLHSGLFLYQGLLQALEGISPELGPTLDTLQLDVADFATTIWQQMEELGMAPALQPTQGAMPAFASAFQRRAGGVLVASHLQSFLEVSYRVLRHLAQP
Kd [1]: 0.103 nM
Kd [2]: 0.49 nM
Kd [3]: 0.34 nM
